These results are taken from patent publication US20260248972A1, “DUAL RECEPTOR TARGETING RADIOLIGANDS AND USES THEREOF RELATED APPLICATIONS” (priority 2022, published 2026).

Molecules are shown by their SMILES. pIC50: −log10 of the molar value. Like-named read-outs stand apart in the source and are kept apart here.

In series [1] the target is T1, SSTR2 (Rattus norvegicus, UniProt P30680).
T1 construct: host or cells: AR42J cells
The series is described as follows: Competitive cell-binding assay on AR42J cells with 125I-C1 as competitive ligand. As to the method: (§1) AR42J cells (ATCC) were maintained in RPMI-1640 medium (Gibco) supplemented with 15% fetal bovine serum (Gibco) and 1% penicillin-streptomycin (BI) at 37° C. in a humidified incubator with 5% CO2. The culture medium was replaced with fresh medium every 2-3 days. Experiments were performed with cells at 70-80% confluence.
(§2) Binding Affinity Tested by Using ^125I-Labeled Competitive Ligands.
(§3) The binding affinities of test compounds were determined by a competitive cell-binding assay using ^125I-C1 and ^125I-C3 as the competitive ligand. The suspended AR42J cells at a density of 1~3×10^6 cells/mL in binding buffer (RPMI-1640 medium supplemented with 0.25% bovine serum albumin) were transferred to a MultiScreen-DV Filter Plate (Millipore) with 100 μL per well except the blank group where the binding buffer was used instead. The cells were then incubated with ^125I-C1 and ^125I-C3 (0.02 μCi/well) in the presence of increasing concentrations (0-10000 nM) of test compounds at 37° C. for 1 h (n=3). The final volume in each well was maintained at 200 μL and insufficient volume was adjusted by the binding buffer. After the 1 h incubation, unbound ^125I-competitive ligands were removed by filtration using a Multiscreen vacuum manifold (Millipore) followed by rinses with the binding buffer (3 times). The filters were collected, and their radioactivity were individually measured by γ counter (2480 WIZARD2, PerkinElmer). The best-fit IC50value (inhibitory concentration when 50% of the bound ^125I-C1 and ^125l I-C3 on cells were displaced) of test compounds were calculated by fitting the data with nonlinear regression using GraphPad Prism 8.0.1.

Series [2] can be described thus: in vivo. The conditions noted are these: BALB/c nude, mouse, in vivo, iv, total radioactivity. In outline: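 Compounds labelled with ^177Lu in 0.5 M NaOAc pH 4.5 at 95° C for 15 min, then used directly or diluted in PBS with 3 mg/mL ascorbate. BALB/c nude mice bore subcutaneous AR42J flank xenografts (0.05-0.50 g). Organs excised at 4, 24 and 72 h post-injection and γ-counted for % ID and % ID/g.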

The target of series [3] is T2, CCK2R (Rattus norvegicus, UniProt P30553).
T2 construct: host or cells: AR42J cells
T2 sequence (P30553 1-452): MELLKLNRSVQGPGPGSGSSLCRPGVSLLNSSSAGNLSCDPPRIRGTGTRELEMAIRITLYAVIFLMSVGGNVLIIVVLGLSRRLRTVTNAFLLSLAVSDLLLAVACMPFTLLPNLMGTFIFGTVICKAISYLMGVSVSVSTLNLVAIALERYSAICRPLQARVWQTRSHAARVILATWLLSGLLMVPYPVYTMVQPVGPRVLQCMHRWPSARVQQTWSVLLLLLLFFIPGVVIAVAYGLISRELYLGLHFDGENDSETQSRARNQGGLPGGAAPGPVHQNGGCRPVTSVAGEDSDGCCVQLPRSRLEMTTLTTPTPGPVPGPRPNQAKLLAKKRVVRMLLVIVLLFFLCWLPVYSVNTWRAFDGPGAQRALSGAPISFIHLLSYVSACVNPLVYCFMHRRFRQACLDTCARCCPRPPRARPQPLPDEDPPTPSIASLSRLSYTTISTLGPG
The series is described as follows: Competitive cell-binding assay on AR42J cells with 125I-C3 as competitive ligand. The protocol:
as §1, §2, §3

T1 sequence (P30680 whole entry): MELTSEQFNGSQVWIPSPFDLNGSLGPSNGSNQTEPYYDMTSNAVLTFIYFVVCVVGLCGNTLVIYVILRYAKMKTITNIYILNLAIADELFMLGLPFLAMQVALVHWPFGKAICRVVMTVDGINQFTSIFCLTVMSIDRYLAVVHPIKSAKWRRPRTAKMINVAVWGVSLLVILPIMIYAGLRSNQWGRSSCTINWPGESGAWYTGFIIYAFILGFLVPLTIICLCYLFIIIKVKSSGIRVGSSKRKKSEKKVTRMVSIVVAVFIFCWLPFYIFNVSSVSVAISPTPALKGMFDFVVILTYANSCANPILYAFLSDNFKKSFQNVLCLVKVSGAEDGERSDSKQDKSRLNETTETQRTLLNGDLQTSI

On to `C[C@@H](O)[C@H](NC(=O)[C@@H]1CSSC[C@H](NC(=O)[C@@H](Cc2ccccc2)NC(=O)COCCOCCNC(=O)COCCOCCNC(=O)[C@H](CCCCNC(=O)c2cccc(NC(=O)N[C@@H]3CN(C4CCCCC4)c4ccccc4N(CC(=O)C(C)(C)C)C3=O)c2)NC(=O)CN2CCN(CC(=O)O)CCN(CC(=O)O)CCN(CC(=O)O)CC2)C(=O)N[C@@H](Cc2ccc(O)cc2)C(=O)N[C@H](Cc2c[nH]c3ccccc23)C(=O)N[C@@H](CCCCN)C(=O)N[C@@H]([C@@H](C)O)C(=O)N1)C(=O)O` [Compound I-39, DOTA-K(Z360)-OEG-OEG-f[CYwKTC]T-OH], for which the pIC50 was 9.44 in series [1] (AR42J cells, 125I-C1 competitive ligand, 37° C. 1 h, read-out: SSTR2/IC50) and 8.31 in series [3] (AR42J cells, 125I-C3 competitive ligand, 37° C. 1 h, read-out: CCK2R/IC50). The “Relative Binding Affinity SSTR2” value in series [1] (based on mean IC50, C-1 = 1.00) was determined as 7.67. Besides, the tissue to tissue ratio at 24 h in series [2] (T/K Tumor/Kidney ratio) worked out at 2.3; in series [2] (T/L Tumor/Liver ratio) it was 9.9; in series [2] (T/P Tumor/Pancreas ratio) it was 29; in series [2] (T/Sp Tumor/Spleen ratio), 89; in series [2] (T/St Tumor/Stomach ratio), 5.9. Moreover, the tissue uptake at 24 h in series [2] (uptake Kidney) was found to be 12 %ID/g; in series [2] (uptake Liver) it was 2.78 %ID/g; in series [2] (uptake Pancreas), 0.94 %ID/g; in series [2] (uptake Spleen), 0.31 %ID/g; in series [2] (uptake Stomach) it was 4.63 %ID/g; in series [2] (uptake Tumor) it was 27.5 %ID/g. In series [3] (based on mean IC50, C-2 = 1.00), the “Relative Binding Affinity CCK2R” value is 3.4.
Turning to `C[C@@H](O)[C@H](NC(=O)[C@@H]1CSSC[C@H](NC(=O)[C@@H](Cc2ccccc2)NC(=O)[C@H](CCCCNC(=O)CC[C@H](NC(=O)CNC(=O)c2cccc(NC(=O)N[C@@H]3CN(C4CCCCC4)c4ccccc4N(CC(=O)C(C)(C)C)C3=O)c2)C(=O)O)NC(=O)COCCOCCNC(=O)CCC(C(=O)O)N2CCN(CC(=O)O)CCN(CC(=O)O)CCN(CC(=O)O)CC2)C(=O)N[C@@H](Cc2ccc(O)cc2)C(=O)N[C@H](Cc2c[nH]c3ccccc23)C(=O)N[C@@H](CCCCN)C(=O)N[C@@H]([C@@H](C)O)C(=O)N1)C(=O)O` (stereo partly shown) [Compound I-19, DOTAGA- OEG- K(-gE- G- Z360)- f[CYwKTC]T- OH], the “Relative Binding Affinity SSTR2” value in series [1] (based on mean IC50, C-1 = 1.00) was 0.46. The tissue to tissue ratio at 24 h is 0.6 in series [2] (T/K Tumor/Kidney ratio); 35 in series [2] (T/L Tumor/Liver ratio); 15 in series [2] (T/P Tumor/Pancreas ratio); 46 in series [2] (T/Sp Tumor/Spleen ratio); 4.3 in series [2] (T/St Tumor/Stomach ratio). Further, the tissue uptake at 24 h in series [2] (uptake Kidney) worked out at 51.6 %ID/g; in series [2] (uptake Liver), 0.96 %ID/g; in series [2] (uptake Pancreas), 2.07 %ID/g; in series [2] (uptake Spleen) it was 0.68 %ID/g; in series [2] (uptake Stomach), 7.24 %ID/g; in series [2] (uptake Tumor), 31.3 %ID/g. In series [3] (based on mean IC50, C-2 = 1.00), the “Relative Binding Affinity CCK2R” value is given as 270.
Take `C[C@@H](O)[C@H](NC(=O)[C@@H]1CSSC[C@H](NC(=O)[C@@H](Cc2ccccc2)NC(=O)[C@H](CCCCNC(=O)c2cccc(NC(=O)N[C@@H]3CN(C4CCCCC4)c4ccccc4N(CC(=O)C(C)(C)C)C3=O)c2)NC(=O)CN2CCN(CC(=O)O)CCN(CC(=O)O)CCN(CC(=O)O)CC2)C(=O)N[C@@H](Cc2ccc(O)cc2)C(=O)N[C@H](Cc2c[nH]c3ccccc23)C(=O)N[C@@H](CCCCN)C(=O)N[C@@H]([C@@H](C)O)C(=O)N1)C(=O)O` [Compound I-34, DOTA-K(Z360)-f[CYwKTC]T-OH]: the “Relative Binding Affinity SSTR2” value in series [1] is listed as 1.49. The tissue to tissue ratio at 24 h in series [2] (T/K Tumor/Kidney ratio, 177Lu-labeled, 24 hours after dosing) was 3.7; in series [2] (T/L Tumor/Liver ratio, 177Lu-labeled, 24 hours after dosing), 1.1; in series [2] (T/P Tumor/Pancreas ratio, 177Lu-labeled, 24 hours after dosing), 7; in series [2] (T/Sp Tumor/Spleen ratio, 177Lu-labeled, 24 hours after dosing), 2.4; in series [2] (T/St Tumor/Stomach ratio, 177Lu-labeled, 24 hours after dosing) it was 4. In addition, the tissue uptake at 24 h in series [2] (uptake Kidney, 177Lu-labeled, 24 hours after dosing (Table 5)) turned out to be 6.1 %ID/g; in series [2] (uptake Liver, 177Lu-labeled, 24 hours after dosing (Table 5)), 19.8 %ID/g; in series [2] (uptake Pancreas, 177Lu-labeled, 24 hours after dosing (Table 5)), 3.2 %ID/g; in series [2] (uptake Spleen, 177Lu-labeled, 24 hours after dosing (Table 5)) it was 9.5 %ID/g; in series [2] (uptake Stomach, 177Lu-labeled, 24 hours after dosing (Table 5)), 5.7 %ID/g; in series [2] (uptake Tumor, 177Lu-labeled, 24 hours after dosing (Table 5)), 22.7 %ID/g. The “Relative Binding Affinity CCK2R” value in series [3] was determined as 5.9.
On to `C[C@@H](O)[C@H](NC(=O)[C@@H]1CSSC[C@H](NC(=O)[C@@H](Cc2ccccc2)NC(=O)[C@H](CCCCNC(=O)COCCOCCNC(=O)COCCOCCNC(=O)c2cccc(NC(=O)N[C@@H]3CN(C4CCCCC4)c4ccccc4N(CC(=O)C(C)(C)C)C3=O)c2)NC(=O)CN2CCN(CC(=O)O)CCN(CC(=O)O)CCN(CC(=O)O)CC2)C(=O)N[C@@H](Cc2ccc(O)cc2)C(=O)N[C@H](Cc2c[nH]c3ccccc23)C(=O)N[C@@H](CCCCN)C(=O)N[C@@H]([C@@H](C)O)C(=O)N1)C(=O)O` [Compound I-42, DOTA-K(-OEG-OEG-Z360)-f]CYwKTC]T-OH], for which, in series [1] (based on mean IC50, C-1 = 1.00), the “Relative Binding Affinity SSTR2” value stood at 0.54. Further, the tissue to tissue ratio at 24 h is 1.1 in series [2] (T/K Tumor/Kidney ratio); 3.3 in series [2] (T/L Tumor/Liver ratio); 12 in series [2] (T/P Tumor/Pancreas ratio); 62 in series [2] (T/Sp Tumor/Spleen ratio); 8.8 in series [2] (T/St Tumor/Stomach ratio). For the same compound, the tissue uptake at 24 h in series [2] (uptake Kidney) turned out to be 17.8 %ID/g; in series [2] (uptake Liver), 5.6 %ID/g; in series [2] (uptake Pancreas), 1.6 %ID/g; in series [2] (uptake Spleen), 0.3 %ID/g; in series [2] (uptake Stomach), 2.1 %ID/g; in series [2] (uptake Tumor) it was 18.7 %ID/g. Moreover, the “Relative Binding Affinity CCK2R” value in series [3] (based on mean IC50, C-2 = 1.00) stood at 115.
`C[C@@H](O)[C@H](NC(=O)[C@@H]1CSSC[C@H](NC(=O)[C@@H](Cc2ccccc2)NC(=O)CC[C@H](NC(=O)[C@H](CCCCNC(=O)CC[C@H](NC(=O)CNC(=O)c2cccc(NC(=O)N[C@@H]3CN(C4CCCCC4)c4ccccc4N(CC(=O)C(C)(C)C)C3=O)c2)C(=O)O)NC(=O)CC[C@H](NC(=O)CN2CCN(CC(=O)O)CCN(CC(=O)O)CCN(CC(=O)O)CC2)C(=O)O)C(=O)O)C(=O)N[C@@H](Cc2ccc(O)cc2)C(=O)N[C@H](Cc2c[nH]c3ccccc23)C(=O)N[C@@H](CCCCN)C(=O)N[C@@H]([C@@H](C)O)C(=O)N1)C(=O)O` [Compound I-9, DOTA-gE-K(-gE-G-Z360)-gE-f[CYwKTC]T-OH]: in series [1] (based on mean IC50, C-1 = 1.00), the “Relative Binding Affinity SSTR2” value is on record as 2.85. The tissue to tissue ratio at 24 h was found to be 0.3 in series [2] (T/K Tumor/Kidney ratio); 8.3 in series [2] (T/L Tumor/Liver ratio); 3.8 in series [2] (T/P Tumor/Pancreas ratio); 11 in series [2] (T/Sp Tumor/Spleen ratio); 3.4 in series [2] (T/St Tumor/Stomach ratio). Also, the tissue uptake at 24 h turned out to be 42.2 %ID/g in series [2] (uptake Kidney); 1.31 %ID/g in series [2] (uptake Liver); 2.89 %ID/g in series [2] (uptake Pancreas); 1.03 %ID/g in series [2] (uptake Spleen); 3.22 %ID/g in series [2] (uptake Stomach); 10.9 %ID/g in series [2] (uptake Tumor). The “Relative Binding Affinity CCK2R” value in series [3] (based on mean IC50, C-2 = 1.00) is recorded as 13.5.

One may read the tissue uptake as the share of the injected amount in each gram of the tissue.
